First the molecules themselves.
B1: Azoarcus group I ribozyme (parent)
chain: GUGCCUUGCGCCGGGAAACCACGCAAGGGAUGGUGUCAAAUUCGGCGAAACCUAAGCGCCCGCCCGGGCGUAUGGCAACGCCGAGCCAAGCUUCGGCGCCUGCGCCGAUGAAGGUGUAGAGACUAGACGGCACCCACCUAAGGCAAACGCUAUGGUGAAGGCAUAGUCCAGGGAGUGGCGAAAGUCACACAAACCGG

For 15 variants, reverse-splicing fitness results are on record in the RNAGym collection of RNA variant scans (doi:10.1093/molbev/msab373).

This series covers variants of B1. Nature of the series: reverse-splicing fitness (ratio to wild type); higher = more active; in vitro selection; Mg2+ level not given. Put shortly:
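An in vitro group I ribozyme library with randomized positions was T7-transcribed and gel-purified. In triplicate, 10 pmol RNA in EPPS pH 7.5 was reacted with 50 pmoles of a 30-nt RNA substrate for 1 h at 37 °C across several added MgCl2 levels (1–48 mM), then stopped with EDTA. Products were reverse transcribed from a substrate-complementary primer, PCR-amplified and sequenced (HiSeq 4000). Fitness is a variant's read proportion after selection over that before, normalised to wild type.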
Consider GUGCCUUGCGCCGGGAAACCACGCAAGGGAUGGUGUCAAAUUCGGCGAAACCUAAGCGCCCGCCCGGGCGUAUGGCAACGCCGAGCCAAGCUUCGGCGCCUGCGCCGAUGUAGGUGUAGUGACUAGACGGCACCCACCUAAGGCUAACGCUAUGGUGAAGGCAUAGUCCAGGGAGAGGCGAAAGUCACACAAACCGG [A111U A120U A145U U176A], for which the reverse-splicing fitness worked out at 0.241.
The value for GUGCCUUGCGCCGGGAAACCACGCAAGGGAUGGUGUCAAAUUCGGCGAAACCUAAGCGCCCGCCCGGGCGUAUGGCAACGCCGAGCCAAGCUUCGGCGCCUGCGCCGAUGUAGGUGUAGUGACUAGACGGCACCCACCUAAGGCUAACGCUAUGGUGAAGGCAUAGUCCAGGGAGGGGCGAAAGUCACACAAACCGG [A111U A120U A145U U176G] was 0.0645; that for GUGCCUUGCGCCGGGAAACCACGCAAGGGAUGGUGUCAAAUUCGGCGAAACCUAAGCGCCCGCCCGGGCGUAUGGCAACGCCGAGCCAAGCUUCGGCGCCUGCGCCGAUGUAGGUGUAGUGACUAGACGGCACCCACCUAAGGCUAACGCUAUGGUGAAGGCAUAGUCCAGGGAGCGGCGAAAGUCACACAAACCGG [A111U A120U A145U U176C] was 0.281.
The value for GUGCCUUGCGCCGGGAAACCACGCAAGGGAUGGUGUCAAAUUCGGCGAAACCUAAGCGCCCGCCCGGGCGUAUGGCAACGCCGAGCCAAGCUUCGGCGCCUGCGCCGAUGUAGGUGUAGUGACUAGACGGCACCCACCUAAGGCUAACGCUAUGGUGAAGGCAUAGUCGAGGGAGGGGCGAAAGUCACACAAACCGG [A111U A120U A145U C169G U176G] was 0.00201.
The value for GUGCCUUGCGCCGGGAAACCACGCAAGGGAUGGUGUCAAAUUCGGCGAAACCUAAGCGCCCGCCCGGGCGUAUGGCAACGCCGAGCCAAGCUUCGGCGCCUGCGCCGAUGUAGGUGUAGUGACUAGACGGCACCCACCUAAGGCUAACGCUAUGGUGAAGGCAUAGUCGAGGGAGAGGCGAAAGUCACACAAACCGG [A111U A120U A145U C169G U176A] was 0.00482; that for GUGCCUUGCGCCGGGAAACCACGCAAGGGAUGGUGUCAAAUUCGGCGAAACCUAAGCGCCCGCCCGGGCGUAUGGCAACGCCGAGCCAAGCUUCGGCGCCUGCGCCGAUGUAGGUGUAGUGACUAGACGGCACCCACCUAAGGCUAACGCUAUGGUGAAGGCAUAGUCGAGGGAGCGGCGAAAGUCACACAAACCGG [A111U A120U A145U C169G U176C] was 0.00666.
For the variant GUGCCUUGCGCCGGGAAACCACGCAAGGGAUGGUGUCAAAUUCGGCGAAACCUAAGCGCCCGCCCGGGCGUAUGGCAACGCCGAGCCAAGCUUCGGCGCCUGCGCCGAUGUAGGUGUAGUGACUAGACGGCACCCACCUAAGGCUAACGCUAUGGUGAAGGCAUAGUCAAGGGAGAGGCGAAAGUCACACAAACCGG [A111U A120U A145U C169A U176A], the reverse-splicing fitness is 0.00253.
The value for GUGCCUUGCGCCGGGAAACCACGCAAGGGAUGGUGUCAAAUUCGGCGAAACCUAAGCGCCCGCCCGGGCGUAUGGCAACGCCGAGCCAAGCUUCGGCGCCUGCGCCGAUGUAGGUGUAGUGACUAGACGGCACCCACCUAAGGCUAACGCUAUGGUGAAGGCAUAGUCAAGGGAGGGGCGAAAGUCACACAAACCGG [A111U A120U A145U C169A U176G] was 0.00231; that for GUGCCUUGCGCCGGGAAACCACGCAAGGGAUGGUGUCAAAUUCGGCGAAACCUAAGCGCCCGCCCGGGCGUAUGGCAACGCCGAGCCAAGCUUCGGCGCCUGCGCCGAUGUAGGUGUAGUGACUAGACGGCACCCACCUAAGGCUAACGCUAUGGUGAAGGCAUAGUCAAGGGAGCGGCGAAAGUCACACAAACCGG [A111U A120U A145U C169A U176C] was 0.00283; that for GUGCCUUGCGCCGGGAAACCACGCAAGGGAUGGUGUCAAAUUCGGCGAAACCUAAGCGCCCGCCCGGGCGUAUGGCAACGCCGAGCCAAGCUUCGGCGCCUGCGCCGAUGUAGGUGUAGUGACUAGACGGCACCCACCUAAGGCUAACGCUAUGGUGAAGGCAUAGUCUAGGGAGGGGCGAAAGUCACACAAACCGG [A111U A120U A145U C169U U176G] was 0.00258.
The value for GUGCCUUGCGCCGGGAAACCACGCAAGGGAUGGUGUCAAAUUCGGCGAAACCUAAGCGCCCGCCCGGGCGUAUGGCAACGCCGAGCCAAGCUUCGGCGCCUGCGCCGAUGUAGGUGUAGUGACUAGACGGCACCCACCUAAGGCUAACGCUAUGGUGAAGGCAUAGUCUAGGGAGCGGCGAAAGUCACACAAACCGG [A111U A120U A145U C169U U176C] was 0.0174; that for GUGCCUUGCGCCGGGAAACCACGCAAGGGAUGGUGUCAAAUUCGGCGAAACCUAAGCGCCCGCCCGGGCGUAUGGCAACGCCGAGCCAAGCUUCGGCGCCUGCGCCGAUGUAGGUGUAGUGACUAGACGGCACCCACCUAAGGCUAACGCUAUGGUGAAGGCAUAGUCUAGGGAGAGGCGAAAGUCACACAAACCGG [A111U A120U A145U C169U U176A] was 0.0087.
As for GUGCCUUGCGCCGGGAAACCACGCAAGGGAUGGUGUCAAAUUCGGCGAAACCUAAGCGCCCGCCCGGGCGUAUGGCAACGCCGAGCCAAGCUUCGGCGCCUGCGCCGAUGUAGGUGUAGUGACUAGACGGCACCCACCUAAGGCUAACGCUAUGGUGAAGGCAUAGUCGAGGGAGUGGCGAAAGUCACACAAACCGG [A111U A120U A145U C169G], the figure is 0.0519.
Turning to GUGCCUUGCGCCGGGAAACCACGCAAGGGAUGGUGUCAAAUUCGGCGAAACCUAAGCGCCCGCCCGGGCGUAUGGCAACGCCGAGCCAAGCUUCGGCGCCUGCGCCGAUGUAGGUGUAGUGACUAGACGGCACCCACCUAAGGCUAACGCUAUGGUGAAGGCAUAGUCAAGGGAGUGGCGAAAGUCACACAAACCGG [A111U A120U A145U C169A], the reverse-splicing fitness was 0.00401.
As for GUGCCUUGCGCCGGGAAACCACGCAAGGGAUGGUGUCAAAUUCGGCGAAACCUAAGCGCCCGCCCGGGCGUAUGGCAACGCCGAGCCAAGCUUCGGCGCCUGCGCCGAUGUAGGUGUAGUGACUAGACGGCACCCACCUAAGGCUAACGCUAUGGUGAAGGCAUAGUCUAGGGAGUGGCGAAAGUCACACAAACCGG [A111U A120U A145U C169U], the figure is 0.0617.
